Laboratory results published in the supplement of paper PMC10899765.

Experiments:
Conditions in all cases: 20 nM; 72 h
MCF10A [1] = experiment: percent viability (nuclei count relative to siNT); higher = more viable cells
Experimental: (§1)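 After 72 h, cells were fixed and stained with Hoechst and anti-fibrillarin, and nucleoli per nucleus were counted with CellProfiler. Values are plate-adjusted percent effect for the one-nucleolus and 5+ nucleoli phenotypes, normalised to siNT (0%) and to the positive controls siNOL11 or siKIF11 (100%), as the mean of biological triplicates. Percent viability is the nuclei count relative to siNT.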

MCF10A [2] = experiment: 5+ nucleoli phenotype percent effect (relative to siNT 0% and siKIF11 100%); higher = more cells with five or more nucleoli
Experimental: as §1

MCF10A [3] = experiment: one-nucleolus phenotype percent effect (relative to siNT 0% and siNOL11 100%); higher = more cells with one nucleolus (ribosome biogenesis inhibition)
Experimental: as §1

Row | Sequence | percent viability (MCF10A [1]) [%] | 5+ nucleoli phenotype percent effect (MCF10A [2]) [%] | one-nucleolus phenotype percent effect (MCF10A [3]) [%]
1 | UGGCUCAGUUCAGCAGGAACAG [hsa-miR-24-3p] | 26.5 | -17 | 2.42
2 | UGGCUGCUUCCCUUGGUCUCCAG [hsa-miR-6762-3p] | 20.3 | -10.9 | 44
3 | UGGCUGUUGGAGGGGGCAGGC [hsa-miR-4687-3p] | 23.1 | -1.42 | 25.6
4 | UGGCUUCUCUUGCACACCCAG [hsa-miR-6815-3p] | 19.9 | -12.3 | 62.9
5 | UGGCUUUUAACUUUGAUGGC [hsa-miR-3119] | 17.4 | -21.8 | 56.7
6 | UGGGAAAGACAAACUCAGAGUU [hsa-miR-6733-5p] | 23.6 | 8.82 | 5.71
7 | UGGGAAAGAGAAAGAACAAGUA [hsa-miR-6739-5p] | 51.5 | 33 | -11.2
8 | UGGGAACGGGUUCCGGCAGACGCUG [hsa-miR-1292-5p] | 60.3 | -16.7 | 13.5
9 | UGGGAACUUAGUAGAGGUUUAA [hsa-miR-4471] | 26.7 | 7.89 | 5.31
10 | UGGGAAUGGGGGUAAGGGCC [hsa-miR-6716-5p] | 28.8 | -19.9 | 19.7
11 | UGGGAGAGAGGACUGUGAGGC [hsa-miR-8085] | 12.6 | -1.75 | 21.4
12 | UGGGAGAGCAGGGUAUUGUGGA [hsa-miR-6731-5p] | 6.77 | -22.2 | 43
13 | UGGGAGCCAUGAGGGUCUGUGC [hsa-miR-6827-5p] | 15.6 | -1.65 | 26.3
14 | UGGGAGCUAAGCUAUGGGUAU [hsa-miR-5591-5p] | 13.9 | -6.94 | 13.6
15 | UGGGAGCUGGACUACUUC [hsa-miR-4300] | 19.7 | 16.1 | 21.3
16 | UGGGAGGAGGGGAUCUUGGG [hsa-miR-7106-5p] | 34.9 | 21.2 | -7.27
17 | UGGGAGGGCGUGGAUGAUGGUG [hsa-miR-6785-5p] | 51.8 | 15 | -4.23
18 | UGGGAGGGGAGAGGCAGCAAGCA [hsa-miR-4728-5p] | 7 | -29.9 | 46
19 | UGGGAUCCAGACAGUGGGAGAA [hsa-miR-4713-3p] | 26 | 16.3 | -1.28
20 | UGGGAUGAGGGAUUGAAGUGGA [hsa-miR-5187-5p] | 25.8 | 24.8 | -17.7

Row | Sequence | percent viability (MCF10A [1]) [%] | 5+ nucleoli phenotype percent effect (MCF10A [2]) [%] | one-nucleolus phenotype percent effect (MCF10A [3]) [%]
21 | UGGGCAGGGGCUUAUUGUAGGAG [hsa-miR-6721-5p] | 21.3 | 22 | 19.5
22 | UGGGCCAGGGAGCAGCUGGUGGG [hsa-miR-4640-5p] | 54.9 | 7.66 | 15.3
23 | UGGGCCAUGCAUUUCUAGAACU [hsa-miR-6508-3p] | 40.2 | -35 | 41.6
24 | UGGGCGAGGGCGGCUGAGCGGC [hsa-miR-6729-5p] | 29 | -3.58 | 6.3
25 | UGGGCGAGGGGUGGGCUCUCAGAG [hsa-miR-4649-5p] | 45.5 | 19.2 | 1.85
26 | UGGGCGUAUCUGUAUGCUA [hsa-miR-585] | 39.1 | -5.6 | 41.1
27 | UGGGCUAAGGGAGAUGAUUGGGUA [hsa-miR-664b-5p] | 32.1 | 2.04 | 5.55
28 | UGGGCUCAGGGUACAAAGGUU [hsa-miR-4437] | 24.3 | -5.83 | 28.8
29 | UGGGCUGAGGGCAGGAGGCCUGU [hsa-miR-4656] | 9.2 | 20.8 | 22.2
30 | UGGGCUGCUGAGAAGGGGCA [hsa-miR-6829-5p] | 7.58 | 2.03 | 37.7
31 | UGGGCUGGCAGGGCAAGUGCUG [hsa-miR-4498] | 9.7 | -6.13 | 38.7
32 | UGGGGAAGGCGUCAGUGUCGGG [hsa-miR-4725-3p] | 28.1 | -3 | 26
33 | UGGGGAAGGCUUGGCAGGGAAGA [hsa-miR-6780b-5p] | 25.6 | -35.6 | 38
34 | UGGGGACGUAGCUGGCCAGACAG [hsa-miR-3191-3p] | 26.7 | 4.11 | 32.8
35 | UGGGGAGCGGCCCCCGGGUGGG [hsa-miR-1343-5p] | 86 | 48.5 | -31.1
36 | UGGGGAGCUGAGGCUCUGGGGGUG [hsa-miR-939-5p] | 82.5 | 17 | -7.29
37 | UGGGGAGGUGUGGAGUCAGCAU [hsa-miR-6825-5p] | 22.4 | 1.61 | 37.7
38 | UGGGGAUUUGGAGAAGUGGUGA [hsa-miR-4450] | 16.5 | 3.63 | 46.8
39 | UGGGGCGGAGCUUCCGGAG [hsa-miR-3180] | 25.6 | -11.7 | 10.4
40 | UGGGGCGGAGCUUCCGGAGGCC [hsa-miR-3180-3p] | 12.9 | 0.481 | 8

Row | Sequence | percent viability (MCF10A [1]) [%] | 5+ nucleoli phenotype percent effect (MCF10A [2]) [%] | one-nucleolus phenotype percent effect (MCF10A [3]) [%]
41 | UGGGGCGGGGCAGGUCCCUGC [hsa-miR-6816-5p] | 71.1 | 30.8 | -19
42 | UGGGGCUAGUGAUGCAGGACG [hsa-miR-4489] | 18.6 | -9.01 | 25.8
43 | UGGGGCUCAGCGAGUUU [hsa-miR-4283] | 17.3 | -10.7 | 24.3
44 | UGGGGGAGAUGGGGGUUGA [hsa-miR-6870-5p] | 32.7 | -6.86 | 15.2
45 | UGGGGGAGCCAUGAGAUAAGAGCA [hsa-miR-4723-5p] | 43.6 | 2.14 | 21.2
46 | UGGGGGAGGAAGGACAGGCCAU [hsa-miR-7111-5p] | 15.3 | -6.11 | 36.7
47 | UGGGGGAGUGCAGUGAUUGUGG [hsa-miR-5698] | 161 | 43.2 | -25.1
48 | UGGGGGCUGGAUGGGGUAGAGU [hsa-miR-6846-5p] | 23.9 | -0.876 | 7.84
49 | UGGGGGCUGGGAUGGGCCAUGGU [hsa-miR-6848-5p] | 22.5 | -4.7 | 7.99
50 | UGGGGGGACAGAUGGAGAGGACA [hsa-miR-6887-5p] | 22.6 | -8.17 | 22.8
51 | UGGGGGGACAGGAUGAGAGGCUGU [hsa-miR-6795-5p] | 16.8 | -6.99 | 28.6
52 | UGGGGGUGGUCUCUAGCCAAGG [hsa-miR-6842-5p] | 9.46 | -11.8 | -7.28
53 | UGGGGGUGUGGGGAGAGAGAG [hsa-miR-7110-5p] | 40.9 | -6.75 | 6.58
54 | UGGGGUAAGGAUAGGAGGGUCA [hsa-miR-6881-5p] | 24.8 | -3.46 | 4.74
55 | UGGGGUGCCCACUCCGCAAGUU [hsa-miR-4664-5p] | 9.8 | -17.8 | 23.6
56 | UGGGUAGAGAAGGAGCUCAGAGGA [hsa-miR-3132] | 21.4 | 62.9 | 1.88
57 | UGGGUCUUUGCGGGCGAGAUGA [hsa-miR-193a-5p] | 40.4 | -18.7 | 26.5
58 | UGGGUGGAAGAAGGUCUGGUU [hsa-miR-6745] | 6.73 | -9.03 | 17.1
59 | UGGGUGGUCUGGAGAUUUGUGC [hsa-miR-1293] | 7.23 | -9.27 | -46.3
